B1: RB1+YTE (human IgG1 with M252Y/S254T/T256E in the Fc) (antibody, V domains shown)
VH: EVQLVESGGGLVRPGRSLRLSCTVSGFSFDDSAMSWVRQAPGKGLEWISFIKSKTYGGTKEYAASVKGRFTISRDDSKNIAYLQMNSLKTEDTAVYYCTRGAPYGGNSDYYYGLDVWGQGTTVTVSS
VL: DIQMTQSPSSLSASVGDRVTITCRTSQDVRGALAWYQQKPGKAPKLLIFDASSLETGVPSRFSGSGSGTVFTLTISSLQPEDFAAYYCQQFLDFPFTFGQGTRLEIKR
B2: RB1 (recombinant human IgG1, CHO-3E7 expressed) (antibody, V domains shown)
VH: B1 VH
VL: B1 VL
notes: Variable domains converted to human IgG1 and expressed in CHO-3E7 cells; also called RB1 MAb; anti-human RSV F protein antibody RB1
B3: D25 antibody (antibody, V domains shown)
VH: QVQLVQSGAEVKKPGSSVMVSCQASGGPLRNYIINWLRQAPGQGPEWMGGIIPVLGTVHYAPKFQGRVTITADESTDTAYIHLISLRSEDTAMYYCATETALVVSTTYLPHYFDNWGQGTLVTVSS
VL: DIQMTQSPSSLSAAVGDRVTITCQASQDIVNYLNWYQQKPGKAPKLLIYVASNLETGVPSRFSGSGSGTDFSLTISSLQPEDVATYYCQQYDNLPLTFGGGTKVEIKR
B4: palivizumab (SYNAGIS) (antibody, V domains shown)
VH: QVTLRESGPALVKPTQTLTLTCTFSGFSLSTSGMSVGWIRQPPGKALEWLADIWWDDKKDYNPSLKSRLTISKDTSKNQVVLKVTNMDPADTATYYCARSMITNWYFDVWGAGTTVTVSS
VL: DIQMTQSPSTLSASVGDRVTITCKCQLSVGYMHWYQQKPGKAPKLLIYDTSKLASGVPSRFSGSGSGTEFTLTISSLQPDDFATYYCFQGSGYPFTFGGGTKLEIK

Experiments:
[1] = molecular target: T1, human RSV pre-fusion F protein (human respiratory syncytial virus (hRSV), UniProt P03420 26-513); assay: SPR (Biacore)
T1 construct: also called hRSV pre-F

[2] = molecular target: T2, human RSV post-fusion F protein LZF21 (human respiratory syncytial virus (hRSV), UniProt P03420 26-524); assay: SPR (Biacore)
T2 construct: extracellular domain; Trimeric; also called LZF21-biotin

[3] = molecular target: T3, human RSV A F protein (ELISA of Example 6; pre- or post-fusion form not stated) (human RSV A, UniProt P03420 26-513); assay: ELISA on coated F protein; lower end of the range
[4] = molecular target: T3, human RSV A F protein (ELISA of Example …); assay: ELISA, RSV A F protein on the plate, antibody titrated, OD450
[5] = molecular target: T1, human RSV pre-fusion F protein; assay: ELISA on coated pre-F
[6] = molecular target: T2, human RSV post-fusion F protein LZF21; assay: ELISA on coated post-F
[7] = molecular target: T1, human RSV pre-fusion F protein; assay: SPR, Biacore T200, 1:1 Langmuir fit
From the text: (§1) Background subtraction binding sensorgrams were used for analyzing the rate constant of association (kₐ) and dissociation (kd), and the equilibrium dissociation constant KD. The resulting data sets were fitted with a 1:1 Langmuir Binding Model using the Biacore T200 evaluation software (version 2.0).

[8] = molecular target: T2, human RSV post-fusion F protein LZF21; assay: SPR, Biacore T200, 1:1 Langmuir fit
From the text: as §1

[9] = molecular target: T4, RSV-F protein R429A mutant, expressed in human cells (UniProt P03420 26-574); assay: shotgun mutagenesis alanine scan, antibody binding to F mutant expressed in human cells
T4 construct: whole, on cells

[10] = molecular target: T5, RSV-F protein I432A mutant, expressed in human cells (UniProt P03420 26-574); assay: as above
T5 construct: whole, on cells

[11] = molecular target: human RSV pre-fusion F protein (human respiratory syncytial virus (hRSV), UniProt P03420 26-513); assay: ELISA on coated pre-F
[12] = molecular target: human RSV post-fusion F protein LZF21 (human respiratory syncytial virus (hRSV), UniProt P03420 26-524); assay: ELISA on coated post-F

Binder	Kd [1] [nM]	koff [1] [s⁻¹]	kon [1] [M⁻¹ s⁻¹]	Kd [2] [nM]	koff [2] [s⁻¹]	kon [2] [M⁻¹ s⁻¹]	EC50 [11] [ng/mL]	other results
B1	0.071	0.00023	3.2e+06	0.48	0.0007	1.4e+06	–	EC50 [3]: 1.97 to 2.46 ng/mL; EC50 [4]: 2.24 ng/mL
B2	0.031	0.00014	4.4e+06	0.41	0.0009	2.2e+06	–	EC50 [5]: 7.05 ng/mL; EC50 [6]: 14.1 ng/mL; Kd [7]: 0.031 nM; koff [7]: 0.00014 s⁻¹; kon [7]: 4.4e+06 M⁻¹ s⁻¹; Kd [8]: 0.41 nM; koff [8]: 0.0009 s⁻¹; kon [8]: 2.2e+06 M⁻¹ s⁻¹; Binding Reactivity (% WT) [9]: 33.1 % WT; Binding Reactivity (% WT) [10]: 36.7 % WT
B3	–	–	–	–	–	–	8.94	–
B4	–	–	–	–	–	–	17.4	EC50 [12]: 10.5 ng/mL
